# Assay results published in patent publication US8361965B2, “Recombinant chimeric protein of neutrophil inhibitory factor and hirugen, and pharmaceutical composition thereof” (Lunan Pharmaceutical Group Corporation, priority 2008, dated 2013).
# Entries after “also recorded” stand apart in the source; their conditions may differ. Like-named read-outs stand apart in the source and are kept apart here.
# T1: Human fibrin (Homo sapiens, UniProt P02671+P02675+P02679)
# T1 construct: Human fibrin (1 g/ampoule, F5386), Sigma company; purchased Sigma F5386
# T1 sequence (P02671 36-629 limits assumed): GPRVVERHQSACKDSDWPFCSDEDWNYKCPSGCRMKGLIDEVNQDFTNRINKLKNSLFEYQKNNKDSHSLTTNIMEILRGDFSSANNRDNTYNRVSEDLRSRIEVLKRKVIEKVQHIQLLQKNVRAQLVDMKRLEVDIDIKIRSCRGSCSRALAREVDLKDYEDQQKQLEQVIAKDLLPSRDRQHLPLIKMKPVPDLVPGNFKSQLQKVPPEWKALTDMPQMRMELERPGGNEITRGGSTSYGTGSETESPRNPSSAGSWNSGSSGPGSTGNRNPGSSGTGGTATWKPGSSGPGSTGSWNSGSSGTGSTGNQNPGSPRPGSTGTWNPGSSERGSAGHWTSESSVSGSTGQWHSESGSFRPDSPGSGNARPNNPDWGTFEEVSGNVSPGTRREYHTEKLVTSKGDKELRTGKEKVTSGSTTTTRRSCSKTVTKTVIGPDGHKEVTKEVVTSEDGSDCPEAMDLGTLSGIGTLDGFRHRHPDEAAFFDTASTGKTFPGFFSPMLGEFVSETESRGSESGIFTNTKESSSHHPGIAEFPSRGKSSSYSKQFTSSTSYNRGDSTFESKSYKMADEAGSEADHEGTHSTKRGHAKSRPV
# T1 sequence (P02675 45-491 limits assumed): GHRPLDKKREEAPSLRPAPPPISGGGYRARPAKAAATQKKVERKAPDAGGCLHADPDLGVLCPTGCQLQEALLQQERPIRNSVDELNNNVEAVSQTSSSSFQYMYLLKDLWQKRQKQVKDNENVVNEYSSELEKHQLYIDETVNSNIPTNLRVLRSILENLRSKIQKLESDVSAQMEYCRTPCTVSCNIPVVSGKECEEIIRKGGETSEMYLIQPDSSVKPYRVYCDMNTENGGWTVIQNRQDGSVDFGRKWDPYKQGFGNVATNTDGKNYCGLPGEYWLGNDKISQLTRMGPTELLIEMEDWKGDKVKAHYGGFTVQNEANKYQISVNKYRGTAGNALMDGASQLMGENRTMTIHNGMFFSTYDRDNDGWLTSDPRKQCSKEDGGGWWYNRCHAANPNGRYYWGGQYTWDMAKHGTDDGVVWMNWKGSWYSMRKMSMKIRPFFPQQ
# T1 sequence (P02679 27-437 isoform P02679-2 limits assumed): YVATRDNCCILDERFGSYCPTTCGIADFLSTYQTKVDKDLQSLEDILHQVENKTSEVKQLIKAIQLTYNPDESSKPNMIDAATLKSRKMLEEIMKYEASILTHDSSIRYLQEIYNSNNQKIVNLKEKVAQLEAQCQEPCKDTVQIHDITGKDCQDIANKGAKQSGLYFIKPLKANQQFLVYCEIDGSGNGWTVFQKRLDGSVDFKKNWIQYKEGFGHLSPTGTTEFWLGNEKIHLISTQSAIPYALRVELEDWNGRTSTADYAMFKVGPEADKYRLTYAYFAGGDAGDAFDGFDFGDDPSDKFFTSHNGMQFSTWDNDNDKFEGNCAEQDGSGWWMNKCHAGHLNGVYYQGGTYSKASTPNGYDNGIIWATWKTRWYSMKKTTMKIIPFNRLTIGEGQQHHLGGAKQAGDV
# Key:
# [1] = system: leukocyte adhesion; experiment: anti-leukocyte adhesion activity, in vitro comparative analysis; type: cell-based
# [2] = system: cerebral ischemia in rats subjected to middle cerebral artery occlusion; type: in vivo, Wistar rats; details: for behavioral score: full score 11
# [3] = target: T1, Human fibrin; experiment: in vitro binding of TNHH to fibrin (SEC-HPLC); details: 37° C. 1 h
# Procedure: Weigh TNHH, dilute to 1.0 mg/ml with phosphate buffer solution, and is ready for use; Weight fibrin precisely, dissolve and dilute to 0.1 mg/ml with phosphate buffer solution, and is ready for use; Weigh thrombin, dissolve and dilute to 100 units/ml with phosphate buffer solution, which is ready for use.
# Following the below procedures, test materials were reacted at 37° C. for 1 h, and then analyzed under the following chromatographic conditions.
# (1) pipette test material solutions (20 μl for each), loading for analysis, and recording each retention time.
# (2) pipette fibrin and thrombin solutions (0.5 ml for each), mixing and reacting at 37° C. for 1 h, and loading 20 μl sample for analysis.
# (3) pipette TNHH and fibrin solutions (0.5 ml for each), mixing and reacting at 37° C. for 1 h, and loading 20 μl sample for analysis.
# (4) pipette TNHH and thrombin solutions (0.5 ml for each), mixing and reacting at 37° C. for 1 h, and loading 20 μl sample for analysis.
# (5) pipette TNHH and mixture of fibrin and thrombin solutions (0.5 ml for each), mixing and reacting at 37° C. for 1 h, and loading 20 μl sample for analysis.
# Flow rate 0.5 ml/min; detection wavelength: 214 nm, Column temperature: room temperature; chromatogram recording time: 25 min.
molecule,measurement,setting,value
"TNHH: recombinant chimeric protein of neutrophil inhibitory factor and hirugen, Met-NIF-GGGGG-FPRPGSGG-Hirugen (SEQ ID NO: 3), expressed in E. coli (protein, N-terminal Met) MNEHNLRCPQNGTEMPGFNDSIRLQFLAMHNGYRSKLALGHISITEESESDDDDDFGFLPDFAPRASKMRYLEYDCEAEKSAYMSARNCSDSSSPPEGYDENKYIFENSNNISEAALKAMISWAKEAFNLNKTKEGEGVLYRSNHDISNFANLAWDAREKFGCAVVNCPLGEIDDETNHDGETYATTIHVVCHYPKINKTEGQPIYKVGTPCDDCSEYTKKADNTTSADPVCIPDDGVCFIGSKADYDSKEFYRFRELGGGGGFPRPGSGGNGDFEEIPEEYL",titer against leukocyte adhesion,[1]; TNHH 1.0 mg/ml,720 unit/ml
same,anti-leukocyte adhesion activity,[1]; in vitro,750 Unit/mg
same,behavioral score,"[2]; 2 mg/kg bid caudal vein, 4 h",6.5 ± 1.0
same,behavioral score,"[2]; 2 mg/kg bid caudal vein, 8 h",6.2 ± 1.2
same,behavioral score,"[2]; 2 mg/kg bid caudal vein, 24 h",5.8 ± 1.2
same,behavioral score,"[2]; 2 mg/kg bid caudal vein, 48 h",5.3 ± 0.5
same,behavioral score,"[2]; 2 mg/kg bid caudal vein, 72 h",5.0 ± 0.6
same,pathological section of brain (cerebral cortex nerve cells),"[2]; 2 mg/kg bid caudal vein, HE, compared with model group","least pathological changes; also recorded: more regular structural arrangements, a portion of deeply stained nucleus, and some cytoplasmic shrinkage or disappearance"
same,Cerebral infarction volume (%),[2]; 72 h,23.2 ± 5.4 %
same,binding with fibrin,[3],could bind with fibrin and thrombin
